The text below walks through data of patent publication US20080160006A1, “Nutrient Medium for Maintaining Neural Cells in Injured Nervous System” (priority 2001, published 2008).

For the test, the system named is human cortical brain cells (neurons vs glia). As to the kind of experiment: Adult human cortical brain cells cultured in B27/Neurobasal A, immunostained for neurofilament and GFAP. The class given is cell-based. The settings on record: added in addition to FGF2, sample 4. From the text:
GENERAL METHODS. Brain tissue was ethically obtained by informed consent from patients before surgery under protocols approved by the Springfield Committee for Research on Human Subjects and the UC Irvine IRB. […] Rather than using aspiration to remove all tissue, slices of tissue 1-3 mm thick were obtained from cortical access ports or tissue that was marginal to the lesion. Use of electrocautery was kept to a minimum to reduce oxyradicals and other neuron damage. […] Hibernate A contains D-glucose, pyruvate, balanced salts, amino acids, and vitamins. B27 contains 5 antioxidants and 15 other components. […] After transport on ice to a laminar flow sterile hood in the culture laboratory, meninges and white matter were removed from the tissue with a scalpel and forceps in a 35 mm dish in 2 ml transport medium. […] The cell suspension was enriched for neurons by centrifugation on a density gradient of Optiprep (Invitrogen). […] The diluted Optiprep was further diluted with transport medium (v/v) to make a gradient containing 4 steps of 1 ml in a 15 ml centrifuge tube: bottom (0.35:0.65), 0.25:0.75, 0.2:0.8, top (0.15:0.85). Up to 6 ml of cell suspension was layered over the Optiprep step gradient. […] Cells were plated at a density of 320/mm^2 onto glass coverslips coated with polylysine as previously described. […]

B1: NT3: trophic factor NT3, recombinant, Regeneron (protein, UniProt P20783 139-257, looked up)
Neurotrophin-3: YAEHKSHRGEYSVCDSESLWVTDKSSAIDIRGHQVTVLGEIKTGNSPVKQYFYETRCKEARPVKNGCRGIDDKHWNSQCKTSQTYVRALTSENNKLVGWRWIRIDTSCVCALSRKIGRT
In the case of B1, the “survival of neurofilament positive cells versus FGF2 alone” value is recorded as “no more efficacious”.
